Assay results as given in publication PMC12693531, “Cooperativity in Escherichia coli L-Threonine Dehydrogenase and Its Inhibition by an Antibacterial N-Pyridylpyrazolone Derivative” (International Journal of Molecular Sciences, 2025).
Structures can show the parent of a compound that is named as a salt.

Legend:
[1] = target: T1, L-threonine dehydrogenase (TDH) (Escherichia coli, UniProt P07913); experiment: fluorimetric NADH formation assay, titration at […] L-Thr and […] NAD+; also affinity chromatography from E. coli lysate on immobilized compound […]; format: biochemical
T1 sequence (P07913 1-341): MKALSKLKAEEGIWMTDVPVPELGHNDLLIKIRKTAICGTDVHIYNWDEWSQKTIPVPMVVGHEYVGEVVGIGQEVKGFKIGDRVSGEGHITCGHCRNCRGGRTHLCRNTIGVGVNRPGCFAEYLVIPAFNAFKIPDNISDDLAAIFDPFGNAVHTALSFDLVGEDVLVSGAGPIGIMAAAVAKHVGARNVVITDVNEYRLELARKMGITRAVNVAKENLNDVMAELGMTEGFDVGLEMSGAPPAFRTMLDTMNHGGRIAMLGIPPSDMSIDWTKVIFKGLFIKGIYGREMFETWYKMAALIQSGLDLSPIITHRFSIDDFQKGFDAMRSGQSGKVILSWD

purified protein [2] = substrate: C[C@@H](O)[C@H](N)C(=O)O; experiment: purified protein; format: biochemical, Escherichia coli; conditions: NAD+; Zn2+ cooperative binding of L-Thr; pH 8.4; 25.0 °C
purified protein [3] = substrate: NC(=O)c1ccc[n+]([C@@H]2O[C@H](COP(=O)([O-])OP(=O)(O)OC[C@H]3O[C@@H](n4cnc5c(N)ncnc54)[C@H](O)[C@@H]3O)[C@@H](O)[C@H]2O)c1; experiment: purified protein; format: biochemical, Escherichia coli; conditions: Zn2+ non-cooperative binding; pH 8.4; 25.0 °C; varied: cofactor

Molecule `NCCc1c[nH]n(-c2ccccn2)c1=O` [compound 1, 4-(2-aminoethyl)-2-(pyridin-2-yl)-1,2-dihydro-3H-pyrazol-3-one dihydrochloride] has an EC50 [1] of 50 ± 10 µM.

B1: L-threonine dehydrogenase (TDH) (Escherichia coli K-12) (protein)
chain: T1 sequence (P07913 1-341)
For B1, the K0.5 (purified protein [2]) was 280 ± 10 µM, the Vmax (purified protein [2]) was 6 µM/min and the K0.5 (purified protein [3]) was 43 ± 3 µM. The Vmax (purified protein [3]) was 3.42 µM/min.
